# Laboratory results taken from the DeepSol protein solubility set.
# Test: soluble on expression in E. coli; label from the status in PepcDB or PDB records
row,Sequence,soluble on expression in E. coli
1,MLGKEELRNQSIAVIGAGIIGLSIGLKLQQQGYHVTIFDPNGVGNGCSKGNAGHIATEQVFPLATPALIPQLPKMLLSSTSPVSIRWQDLPNTVGWMIRFLLKAKPSAAEASTQAITSLNTRAVQSWNLLLDSIGKSGLIKMDGSLLTFESESLFEGYQSTLDALAEQGVRYELWTQNEIRRRLPELSRKVRFGVFFPETGHTINPYALCVELSNAFEKLGGSLVHEEVDAVSKNGDVLVNTQRMSFDKIVVAAGVHSKALVRQLTGVNVPIQAERGYHLMMNDKRESLPFPISSADRKFIMTPMSEGLRLAGTVEYADVKSPPNMKRAEMLYQQGNAMFESGLNPLEQQEKWMGNRPSTIDSLPVIDQCFNGKIFLAFGHQHLGLTQAAITADLISELVADKPTSVNITPFTLQRFALEHHHHHH,not soluble
2,MLGNIAEISNPNERRQAVKALVSAVKSDEDDSVRAAATDALYQRGEDAFDYLVAELAEMGGSEATERTATTLLTEWLSADHLEFRMVAATALGERGATAAVPDLVRALTDPAPRVRTRAAQACGRLSDPRVVPPLSERLSDGRQQVREAAANALGAIGTDRALAELVPVTQADEEGLRLIAVDELGQFGSVKPVVVLVDALDDDSTTVQRAAMLSLLELLTTASTEELELIRGTVVDELARADVQATVPALLDIAADGTRRRYRQTAIWLLSRITGDRYRSEVIDCLLSTLDKPDEETAQLAEAVLPELRSPELEKRLRVYLSRERGSEEARSRAQAVLDEICDGSSGELVTTGVDYTYVDSPADYTNQHSSRD,not soluble
3,MLGVFQKRCASTAPLIRPIQRVLVANRGEIAIRVQNTARKMGIETVAVFSDADRNSLFVKKADKAYHIGPPLAAESYLNMDKIINSALRSGAQAIHPGYGFLSENAGFAEKCAQAGLVFIGPPAQAIRDMGAKNVSKQIMEDAKVPVVKGFHGEDQSDANLKKKSAEIGYPVMLKAVYGGGGKGMRIAWNEAEFEEKLASARNEAKKSFGNDEMLVEKFVEKPRHVEVQVFGDHHGNYVHLWERDCSVQRRHQKIIEEAPAPNMEHDTRVKLGESAVRAAAAVGYVGAGTVEFIMDPRGEFYFMEMNTRLQVEHPVSEAITGTDLVEWQLRVAQGEKLPLKQSEIPLNGHAFECRVYAEDTRKGAFMPTAGRLNYVDFPEDARIDTGVVSGDEVSIHYDPMIAKVVVWGQDRAVAAAKLESALARTRISGLPTNIDFVRRVLAHPEFAAGNVYTDFIPDHQKELFAESETPAEIYVESAVAHALAALQKSDAGVFQNLSFFRMNLSPKYIFKIDGKDVSIRFDSDSRLTVSYDGNSYETLLNDIESTTDGSFKFTLEANGRRWSTVVKNLGNSLMVNGVGQNEYETPQIHETFDSLSGGAASHSAVAPMPGIIEKILVKPGEQVTTGQALVVMTAMKMEYIIRAPEDSTVEHIKCQAGKNVPKNAVLVQFA,not soluble
4,MLHTLHRSPWLTDFAALLRLLSEGDELLLLQDGVTAAVDGNRYLESLRNAPIKVYALNEDLIARGLTGQISNDIILIDYTDFVRLTVKHPSQMAW,soluble
5,MLIRAMQKSDYEAVYKLWCEIKGFGIRSIDDSKENIENFLDRNPNLSVVAVIDEEIVGSILCGHDGRTGGFYHVCVHKDHRKKGIAHEMAKFCLEALKAQKINKIALIAFKNNDLGNEFWKHYGFTLREDANYYDLSLNEYNQTSFNA,not soluble
6,MLIRRKIMQYNDMSKEELLVLKESLNKEYAEAKAKGLALDMSRGKPSAKQLDVSLGLLDTINSSSDLKSLDGTDCRNYGVLDGIPEAKKLMADMMGTTPDHVIVYGNASLNIMYDQISRAYTHGILGNTPWCKLDKVKFLCPVPGYDRHFAITERFGIEMINIPMSESGPDMGMVEEYVSKDASVKGIWCVPKYSNPQGYTYSEETVKRMAALKPAAEDFRIFWDNAYVIHDLYDDNKDEIADIISECEKAGNPDMVFEFASTSKVSFPGSGIAALATSANNIADIKKQLTIQTIGHDKLNQLRHVRFFKDINGLKEHMRKHAEFIRPKFEAVESVLEEELSGLGIGSWTEPKGGYFISFDAMDGCAKAIVAKCKEAGVKLTGAGATFPYGKDPKDSNIRIAPSFPTPEEMKQAADLFVLCVKLVSVEKLLENK,not soluble
7,MLITERIYVLEDVDVQAFLGVNNSNLMLLRTLFPKLRLVAHHNVLKIMGDSRETDRFLEVLEPMVAYCREYNLLPEDVILRIAQGAKLPADDVPKHLILHGTGGKSIIARGDNQQKLVEAFEANDLVFAIGPAGTGKTFVAISLAVRALKSKQVRRIILSRPAVEAGEKLGFLPGEMKDKLDPYLQPLYDALEEMIPAVKLKEYIENNIIQIAPLAYMRGRTLNDAVVILDEAQNTTELQMKMFLTRLGANAKMIVTGDITQTDLPRGVHSGLRQALNILQGTRGIGYIAFQRADIVRHPLVQRVVDAYDRYDAERKKEAEAAAVVAQTI,not soluble
8,MLKFFAALLFAVATMAQAQDNTLHTDLPLDYLAQANVETPDRPLVIFIHGYGSNAADLFGLKEHLPAGFNYLSVQAPVELQADSYKWFTQKKGGTDYDGVTEDLKSSGKRLTDFITQATEKFRTQPGKVFLVGFSQGAMMSYEVALRQPTLVGGFAALSGRLLPVVKSEVNASDDLKALKVFIGHGVQDRQVAYASGPQAEATLKSLGLTPQFHGYEGLGHSINEAEVVDLANWLQQSSR,not soluble
9,MLKIISGKYRNQIIPTAKNIKYRPSTGKLKEAIFSILTSGEFTGNKLFNENTHILDLFAGSGSLAFESLSRGAGFATLIDIDTSSLKIAEGFAKSLNIENNVNFVNINALNLPKATRHLFKPAYREGSKGDTEHSTAAYTLVREDASTGSTFKLPLEAKFGKMSNKSFDLVFIDPPYHKNIVPKVMKLLIKNNWLKDGAIIVIEMAKTDDYILDENIEIIREKLYGKSKLLVLSFTVIPAKAGIQ,not soluble
10,MLKKAEKFEKIFRLESSLRALERVRDFLSQESYERLRELVLIRLKGIKIEEKELNSKVAVAFSGGSDSSATYKILAWAGFKVYPITAKLPQMRDEVLKRLESGGAIFVEIPEYMEVMEDLIRKRTAICGRCHSMVMRAVEERARELGAEIVASGDMLTVGSGSIYEKDGIVILNLPAFLALDKKELLEILGWKKYELKYGCPLWKEAAKRAPVLKKFGLQRVLRELRGGALPKEFAKELIIDILRA,not soluble
11,MLKMSTRTEAMSDKQVRAQYTREFKLEAVRQVRAGQAIAGVAKVLGIPKASLGNGVRLAAKGALGGSGGSDKADRVSPEQMEIARLRAEVARLRMERDIAKKAAAYFAQDTLRGTPGLTQLEHHHHHH,not soluble
12,MLKQSLATLLLCSTLSPLAVVLPTLAGPGDGGMGWGAKVENLNLTPEQRQNLQAIRQRYQSQIEETRTQLRTAKDELRRLMASNASDEQIRAKHAQVQQLQQKLATLRFESMLATRKILTPEQRQALAERMQNRQGQRRLERLEHHHHHH,soluble
13,MLKVAIAEDDFRVAQIQEEFLSKIKDVTVIGKALNAKETIELLQKEEIDLLLLDNYLPDGIGTDLLPQIHADFPNVDVIMVTAANENYMLEKAIRNGVSNYLIKPVTLEKFVRTIEDYKRKKQLLHSNNEVNQALIDNFFGTSQTQDIKNLPTGVDPLTLQKVKGIIKGFEEGITIEEMGEQMGASRTTARRYLEYLVATNECTVEYKYGIIGRPERKYRIGRGL,not soluble
14,MLLAYSMKVVYHLFSGGKDSSLAAWILKKLGYEVKLITITFGVLDNWKFARETAEILGFDHEVIEMPIGILEKATEMCIKEGRAGNAIQYIHERALEYIASREEVKRISDGTRRDDRVPFLDLSKARSLEDRYNVAYIRPLLGLGYKTIRELVNEIFVVVEDESEKVQKGDYETELRELIRRKGHDPSQIFPKRHVQSRVVGLR,not soluble
15,MLLEERLSQISQIIDKEGSATIDFLAQKLEVSKDTIRRDLIKLESRKKLHRVHGGAIPIGKEAEILNYEERSNISTSLKKKIASKIKNLIKDHSTLIFDSSTTVEVAIKQLDNFSISTITNSLTNAILLSKYEMATVQLLPGKLNKNQLFLYGAETVEKLSQYQVDFTILGVFALSNNGLFIHTEEEGLVKRKMIQQGKQVIAIADHTKLNKEGFFKICDLKEIDYLITDEKIEGELMNNLNDNNVKVVTINELEHHHHHH,soluble
16,MLLELIPLLGIHFVLRTARAQSVTQPDIHITVSEGASLELRCNYSYGATPYLFWMERTVEEAFILLVCLKPWRVASSLEKKEKEDESFQLLLGSRYNVLEAHCLLPLIRWLTSGDSLLSAQPHCPQEL,not soluble
17,MLLGEGAFGQVFKGILRGPNGQVIPVAVKQLKANAIDEEREEFVREIQMMQTVGQHDNIVTMYGYCMDEQLQCMIMEYVPYGDLKHYLQNMRKEKDSDSAIDSKEFLSFTNQIACGMAHLESVGIIHRDLAARNILVGTGKVLKISDFGMSRPGVYIKMSKGVIPLRWLSPEAIKDNTYSNKSDVWAFGVLLWEIATLGGFPYNNVADKDILNQLTEGMRLEQPAKCSDDMYILMKSCWNLKAEDRPSFLAILSKIEQIANVDADAPPSDPPAKDV,not soluble
18,MLLKLKCTVNNYAWGPKGNSSMAGSLALDGGHIPNLDKDKPYAEFWVGTHANGPAHVIEKDIALKQLLATSPELQGKHEKGNLSFLFKVLSVLGPLSIQIHPTKEQGKLLHATDPKNYPDDNHKPEIAIALTEFELLSGFRQHSQISEYLKLYSEIQELLTEEEKSQIDSLGSYGESSAQVLKKIFSRIWRTPKEKLQIVVDKLARRIQGHENKTALDEIIVYLFTLYPGDVGVFAPIFLNYFKLQPGEATFLEPNMPHAYLKGDCVECMADSDNTIRAGLTPKYIDVESLVEMLNYDETLLPKYIPNELDDGSLLFTPRGIDEFWVQEVKGPAGSIYQLPYSESCSVLTVLYGTATVTLGDASQVLNRGEVVFIGATHDAERPKINISDDFLAFRAFTPSPRALESLSNKRLIID,not soluble
19,MLLKSIHHIAIICSDYEKSKAFYVHKLGFQVIQETYREERGSYKLDLSLNGSYVIELFSFPDPPERQTRPEAAGLRHLAFTVGSLDKAVQELHEKGIETEPIRTDPLTGKRFTFFFDPDQLPLELYEQ,not soluble
20,MLLPRCCWGRWLMGRRPRCSCQAPAGFDGKDGRGSRVREMPPWRVLFLGTDHFARETLRALHAARDGKEEKLIEKLEVVTVPSLSPKGLPVKQYAIQSQLPVYEWPDVGSGEYDVGVVASFGRLLSEALILKFPYGILNVHPSCLPRWRGPAPIIHTVLHGDTVTGVTIMQIRPKRFDIGPILQQETIPVPPKSTSKELEAVLSKLGANMLISVLKNLPESLNNGRPQPAEGVTYAPKVSAGTSCVKWEEQTSEQVLRLHLAIGDIVPLQTLWMENTVKLLDLVEVNNSILADPKLTGQTVTPGFVVYHRPSQMLLVRCKDGWIGVRSVMLKKTLTATDFYNGYLHAWYQKNSHAHPSQCRFQTLRLPTKMQQKTKLLLCNSALSS,soluble
21,MLMAATIPHIETITFTDWFLAIIDTPDIPIDEIEIRVAEGFKRKLTERQFQQLTELIHLISFIKHKKISNPTLALRIYVDENTSSLSRTALVEAVRMLPPEDNKTYELAAYLAQKNKLERYTNITKVPPLQIYQGDGVFEQYDEWILLFELFGLTQATPSDFIPAIAHLLITKNLGIPDLRALSKFMSTTHKLGILSQSFMNNMTPHLCNGQIIEKYESLLLKLQINDLLTEEILEVIYPLLNQPDALDAFFSLYHEEPSHDSALSFLREILPSFCAMSLPSKESYDDQVPTNTPLHLAVIESDKGNLERTLAFANRNLLIKCSYENTALLLACKLADKESARLILAKMQELGCDVNQRDHHGMTALHWANFYHFDELIRELEIAGADPQLKAANGKTCEYFYQHQFTLKDLKLNGKEIIDGEFKLSDCALTDIAFHMDKIALNLKLTTPSEIAELYARDEIAQIRSSNRFYLFFKLFRPKLINWLEKQNDLEPQVTYRFSGQSSSA,not soluble
22,MLNRYYRFAVEKDDPSEAPESGDKPDSQPQKKS,not soluble
